In this assay the target is Burkholderia pseudomallei Class 2 OLD protein, full-length (Bp^FL, residues 1-594) (Burkholderia pseudomallei). The assay is described as follows: SEC-MALS.

Where “and” joins values, the source holds several entries; their conditions need not be identical. Identical values can stand only once.

For “Burkholderia pseudomallei Class 2 OLD protein, full-length (Bp^FL, residues 1-594) (enzyme)”, the stoichiometry N is 2 and 4.
